Assay results published in the RNAGym collection of RNA variant scans (doi:10.1021/acssynbio.7b00057).

B1: Pistol ribozyme (parent)
chain: GGGUCGUUGUUCCAUAAUCGCGUGGAUAUGGCACGCAAGUUUCUACCGGGCACCGUAAAUGUCCGACUGGAGCCGUUCGGGCGGCUAUAAACAGACCUCAGGCCCGAAGCGUGGCGGCACCUGCCGCCGGUGGUAAAAAAGAUCGGAAGAGCACACGUCU

Variants of: B1
Assay: aptazyme ON/OFF ratio, guanine; higher = stronger switching; co-transcriptional cleavage with and without guanine

| Variant | aptazyme ON/OFF ratio |
| --- | --- |
| U8G G9C U10A U11C C12U C13U | 1.02 |
| U8G G9C U10A U11C C12U C13A | 1.09 |
| U8G G9C U10A U11C C12U C13G | 1.06 |
| U8G G9C U10A C12G C13G | 1.16 |
| U8G G9C U10A C12G C13U | 1.17 |
| U8G G9C U10A C12G C13A | 1.16 |
| U8G G9A U11G C12U C13U | 1.24 |
| U8G G9A U11G C12U C13A | 1.2 |
| U8G G9A U11G C12U C13G | 1.16 |
| U8G G9U U10A U11G C12G | 1.27 |
| U8G G9U U10A U11G C12A | 1.12 |
| U8G G9U U10A U11A | 1.59 |
| U8G G9U U10A U11C | 1.01 |
| U8G G9U U10A U11G | 1.16 |
| U8G G9C U10G U11C C12A C13G | 1.04 |
| U8G G9C U10G U11C C12A C13A | 1.04 |
| U8G G9C U10G U11C C12A C13U | 1.03 |
| U8G G9U U10A U11A C12G | 1.14 |
| U8G G9U U10A U11A C12A | 1.34 |
| U8G G9U U10A U11A C12U | 1.19 |
| U8G G9C U10A U11C C12G | 1.14 |

| Variant | aptazyme ON/OFF ratio |
| --- | --- |
| U8G G9C U10A U11C C12A | 1.12 |
| U8G G9C U10A U11C C12U | 1.04 |
| U8G G9C U10C U11G C12G C13U | 1.08 |
| U8G G9C U10C U11G C12G C13A | 1.08 |
| U8G G9C U10C U11G C12G C13G | 1.11 |
| U8G G9C U10G U11A C12U C13G | 1.15 |
| U8G G9C U10G U11A C12U C13U | 1.12 |
| U8G G9C U10G U11A C12U C13A | 1.16 |
| U8G G9U U10A U11A C13G | 1.09 |
| U8G G9U U10A U11A C13U | 1.25 |
| U8G G9U U10A U11A C13A | 1.19 |
| U8G G9C U10G U11C | 1.03 |
| U8G G9C U10G U11A | 1.07 |
| U8G G9C U10G U11G | 1.2 |
| U8G G9C U10C U11A | 1.07 |
| U8G G9C U10C U11C | 1.04 |
| U8G G9C U10C U11G | 1.27 |
| U8G G9U U10A C13A | 1.1 |
| U8G G9U U10A C13G | 1.06 |
| U8G G9U U10A C13U | 1.09 |
| U8G G9C U10G U11G C12U | 1.23 |

| Variant | aptazyme ON/OFF ratio |
| --- | --- |
| U8G G9C U10G U11G C12G | 1.31 |
| U8G G9C U10G U11G C12A | 1.21 |
| U8G G9C U10A U11A C13G | 1.04 |
| U8G G9C U10A U11A C13U | 1.15 |
| U8G G9C U10A U11A C13A | 1.11 |
| U8G G9C U11G | 1.14 |
| U8G G9C U11C | 1.03 |
| U8G G9C U11A | 1.13 |
| U8G G9C U11G C12A C13G | 1.05 |
| U8G G9C U11G C12A C13U | 1.08 |
| U8G G9C U11G C12A C13A | 1.08 |
| U8G G9C U10G U11G C12U C13A | 1.16 |
| U8G G9C U10G U11G C12U C13G | 1.14 |
| U8G G9C U10G U11G C12U C13U | 1.28 |
| U8G G9C U10A C12U C13A | 1.15 |
| U8G G9C U10A C12U C13U | 1.07 |
| U8G G9C U10A C12U C13G | 1.1 |
| U8G G9U U10A U11C C12U C13A | 1.08 |
| U8G G9U U10A U11C C12U C13G | 1.05 |
| U8G G9U U10A U11C C12U C13U | 1.05 |
| U8G G9C U11G C12U C13G | 1.13 |

| Variant | aptazyme ON/OFF ratio |
| --- | --- |
| U8G G9C U11G C12U C13U | 1.25 |
| U8G G9C U11G C12U C13A | 1.1 |
| U8G G9C U10G U11C C13G | 1.02 |
| U8G G9C U10G U11C C13U | 1.04 |
| U8G G9C U10G U11C C13A | 1.05 |
| U8G G9C U10A U11G C12A C13U | 1.16 |
| U8G G9C U10A U11G C12A C13A | 1.07 |
| U8G G9C U10A U11G C12A C13G | 1.14 |
| U8G G9C U10A U11A | 1.18 |
| U8G G9C U10A U11C | 1.03 |
| U8G G9C U10A U11G | 1.18 |
| U8G G9C U11A C13U | 1.05 |
| U8G G9C U11A C13G | 1.03 |
| U8G G9C U11A C13A | 1.04 |
| U8G G9C U10G U11A C12G C13G | 1.29 |
| U8G G9C U10G U11A C12G C13U | 1.2 |
| U8G G9C U10G U11A C12G C13A | 1.14 |
| U8G G9U U10A C12U C13U | 1.17 |
| U8G G9U U10A C12U C13G | 1.19 |
| U8G G9U U10A C12U C13A | 1.2 |
